# Laboratory results taken from paper doi:10.1101/2020.12.04.20244186.
# B1: Fc-labeled scrambled control oligo (Au/Fc-control) (ssDNA)
# DNA: TGACGGGAGACTTAAAACGCAAGGGGTGCAGCTATCGCGGAGGCCAAGGGTTCAAGTCGACGGGTAGCTAGGTTGGA
# modifications: 5'-disulfide (thiol after TCEP, on gold electrode); 3'-NH2 coupled to ferrocene carboxylic acid
# Target: c-KIT extracellular domain (soluble KIT) (UniProt P10721-2 26-516)
# Assay: square wave voltammetry
binder,measurement,value
B1,binding result,no binding
